# Experimental data published in patent US20120264616A1.
# Biological target: receptor for IFN λ expressed by reporter HL116 cells (UniProt Q8IU57)
# Assay: cell-based or functional assay
# Sequence of UniProt Q8IU57 (Q8IU57 21-520 limits assumed): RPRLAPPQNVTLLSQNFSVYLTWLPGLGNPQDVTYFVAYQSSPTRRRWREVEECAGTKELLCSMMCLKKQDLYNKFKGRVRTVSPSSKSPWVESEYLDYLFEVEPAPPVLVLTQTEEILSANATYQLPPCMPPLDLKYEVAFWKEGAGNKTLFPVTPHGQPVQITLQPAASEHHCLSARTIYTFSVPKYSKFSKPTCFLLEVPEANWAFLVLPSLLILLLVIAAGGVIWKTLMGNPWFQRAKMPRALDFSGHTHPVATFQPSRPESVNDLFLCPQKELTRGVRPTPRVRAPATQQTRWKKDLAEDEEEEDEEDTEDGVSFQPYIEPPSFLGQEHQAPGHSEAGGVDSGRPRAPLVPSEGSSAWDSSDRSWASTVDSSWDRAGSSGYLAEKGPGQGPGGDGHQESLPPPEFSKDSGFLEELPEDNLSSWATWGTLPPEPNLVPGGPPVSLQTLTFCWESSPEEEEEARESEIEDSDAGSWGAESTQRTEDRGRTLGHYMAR
substance,measurement,value
interferon lambda (IFN λ) secreted into the culture supernatant by 293T cell clones transduced with parental lentiviral particles (ligand),"Luc exp 1, clone 1",68.2
same,"Luc exp 1, clone 2",73.2
same,"Luc exp 1, clone 3",80.8
same,"Luc exp 1, clone 4",84.3
same,"Luc exp 1, clone 5",100
same,"Luc exp 1, clone 6",77.7
same,"Luc exp 1, clone 7",90.9
same,"Luc exp 1, clone 8",88.9
same,"Luc exp 1, clone 9",78.7
same,"Luc exp 1, clone 10",89.8
same,"Luc exp 1, clone 11",95.4
same,"Luc exp 1, clone 12",77.2
same,"Luc exp 1, clone 13",94.4
same,"Luc exp 1, clone 14",89.2
same,"Luc exp 1, clone 15",87.6
same,"Luc exp 1, clone 16",81.4
same,"Luc exp 1, clone 17",79.9
same,"Luc exp 2, clone 1",68.8
same,"Luc exp 2, clone 2",66.3
same,"Luc exp 2, clone 3",87.3
same,"Luc exp 2, clone 4",88.1
same,"Luc exp 2, clone 5",97.8
same,"Luc exp 2, clone 6",88.3
same,"Luc exp 2, clone 7",95.1
same,"Luc exp 2, clone 8",107
same,"Luc exp 2, clone 9",99.2
same,"Luc exp 2, clone 10",86.9
same,"Luc exp 2, clone 11",75.8
same,"Luc exp 2, clone 12",91.6
same,"Luc exp 2, clone 13",94.8
same,"Luc exp 2, clone 14",72.9
same,"Luc exp 2, clone 15",87.8
same,"Luc exp 2, clone 16",77.2
same,"Luc exp 2, clone 17",71.7
same,"Luciferase average, clone 1",68.2
same,"Luciferase average, clone 2",69.7
same,"Luciferase average, clone 3",84
same,"Luciferase average, clone 4",86.3
same,"Luciferase average, clone 5",99
same,"Luciferase average, clone 6",83
same,"Luciferase average, clone 7",93
same,"Luciferase average, clone 8",97.9
same,"Luciferase average, clone 9",89
same,"Luciferase average, clone 10",88.3
same,"Luciferase average, clone 11",85.6
same,"Luciferase average, clone 12",84.4
same,"Luciferase average, clone 13",94.6
same,"Luciferase average, clone 14",81.1
same,"Luciferase average, clone 15",87.7
same,"Luciferase average, clone 16",79.3
same,"Luciferase average, clone 17",75.8
